Test results published in PMC2903050 (Journal of molecular biology, 2010).

Experiments:
[1] = target: T1, botulinum neurotoxin serotype A light chain residues 1-448 (Clostridium botulinum, BoNT/A1 …, UniProt P0DPI0); assay: flow cytometry on cells
[2] = target: T1, botulinum neurotoxin serotype A light …; assay: KinExA
Target sequence in this assay (P0DPI0 1-448): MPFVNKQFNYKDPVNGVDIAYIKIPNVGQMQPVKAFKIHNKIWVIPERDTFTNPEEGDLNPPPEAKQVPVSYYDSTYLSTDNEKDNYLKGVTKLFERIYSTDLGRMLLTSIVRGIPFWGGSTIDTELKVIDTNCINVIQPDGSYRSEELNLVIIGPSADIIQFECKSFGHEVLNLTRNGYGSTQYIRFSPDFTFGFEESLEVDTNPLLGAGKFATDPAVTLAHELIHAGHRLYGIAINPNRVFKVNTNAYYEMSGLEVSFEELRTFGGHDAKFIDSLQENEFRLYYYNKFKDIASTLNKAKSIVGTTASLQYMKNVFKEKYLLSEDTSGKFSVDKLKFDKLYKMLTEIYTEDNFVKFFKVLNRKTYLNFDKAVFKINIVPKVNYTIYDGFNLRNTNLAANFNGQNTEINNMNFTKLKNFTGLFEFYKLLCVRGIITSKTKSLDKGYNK

[3] = target: truncated BoNT/A Lc containing residues 1-425 (Clostridium botulinum, UniProt P0DPI0); assay: […]
Chain of truncated BoNT/A Lc containing residues 1-425 (P0DPI0 1-425): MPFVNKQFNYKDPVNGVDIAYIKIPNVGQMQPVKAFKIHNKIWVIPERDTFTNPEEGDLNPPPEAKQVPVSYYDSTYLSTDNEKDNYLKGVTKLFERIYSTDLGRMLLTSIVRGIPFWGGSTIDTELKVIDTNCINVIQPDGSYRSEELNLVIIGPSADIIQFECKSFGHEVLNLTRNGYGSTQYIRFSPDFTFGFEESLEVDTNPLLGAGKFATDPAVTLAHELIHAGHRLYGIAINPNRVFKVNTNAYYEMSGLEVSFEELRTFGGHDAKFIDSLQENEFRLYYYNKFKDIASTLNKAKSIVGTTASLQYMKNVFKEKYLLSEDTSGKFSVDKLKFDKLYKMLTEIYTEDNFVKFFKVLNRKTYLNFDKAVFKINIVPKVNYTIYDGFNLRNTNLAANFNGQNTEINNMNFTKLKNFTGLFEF

B1: Aa1 VHH, yeast displayed (VHH)
VHH: AVQLVDSGGGTLQAGKSLRLSCAISGLAFDGGAMGSEHRLTAGAMGWFRQAPGKDREFVAAISPRTDETYYAESLEGRFSVSRDAAATMVFLQADNVRLDDTASYYCAADEDVTPRVMGVIPHADHWGQGTLVTVSS
With B1 the Kd [1] was 0.03 nM.

B2: Aa1 VHH, purified (VHH)
VHH: AVQLVDSGGGTLQAGKSLRLSCAISGLAFDGGAMGSEHRLTAGAMGWFRQAPGKDREFVAAISPRTDETYYAESLEGRFSVSRDAAATMVFLQADNVRLDDTASYYCAADEDVTPRVMGVIPHADHWGQGTLVTVSS
With B2 the Kd [2] was 0.147 nM, the koff [2] was 0.00666 s⁻¹ and the kon [2] was 4.39e+07 M⁻¹ s⁻¹.

B3: Aa1 VHH, for crystal growing (VHH)
VHH: AVQLVDSGGGTLQAGKSLRLSCAISGLAFDGGAMGSEHRLTAGAMGWFRQAPGKDREFVAAISPRTDETYYAESLEGRFSVSRDAAATMVFLQADNVRLDDTASYYCAADEDVTPRVMGVIPHADHWGQGTLVTVSS
With B3 the “stoichiometry N” value [3] was 1.
